Test results as given in patent US11434299 (TENEOBIO, dated 2022).

T1: human BCMA (B-Cell Maturation Antigen) on NCI-H929 cells (human, UniProt Q02223 1-184)
T1 construct: whole, on cells; Endogenous BCMA on NCI-H929 myeloma cells; also called TNFRSF17; H929 cells (BCMA+, lambda-)
T1 sequence (looked up): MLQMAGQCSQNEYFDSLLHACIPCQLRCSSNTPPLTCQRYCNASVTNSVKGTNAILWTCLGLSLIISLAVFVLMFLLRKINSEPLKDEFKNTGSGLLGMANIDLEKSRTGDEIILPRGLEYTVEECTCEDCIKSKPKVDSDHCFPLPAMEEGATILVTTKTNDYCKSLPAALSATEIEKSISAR


Target: T1, human BCMA (B-Cell Maturation Antigen) …
Test: flow cytometry, HEK supernatants on NCI-H929 cells (BCMA+)
Procedure: Supernatants of all antibodies were also tested by flow cytometry for binding to RPMI-8226 cells (BCMA+, lambda+) and H929 cells (BCMA+, lambda−). The samples were measured by flow cytometry using a Guava easyCyte 8HT instrument from EMD Millipore and analyzed using guavaSoft. Bound antibodies were detected with goat anti-human IgG F(ab')_2 conjugated to PE (Southern Biotech 2042-09). All antibodies were diluted in PBS with 1% BSA. Positive staining was determined by comparison to staining with a human IgG1 isotype control. The NCI-H929 and RPMI-8226 cell lines are human multiple myeloma lines expressing human BCMA, which were obtained from the American Type Culture Collection (ATCC) and cultured according to ATCC recommendations.

Binder	binding result
SEQ ID NO 29 (antibody, V domains shown, UniAb: CH1 deleted, no light chain; HEK supernatant) VH: EVQLLESGGGLVQPGGSLRLSCAASGFTFSSYAMNWVRQAPGKGLEWVSGIIGSGGSTYYADSVKGRFTISRDNSKNTLYLQMNSLRAEDTAVYYCVKDWNTTMITERGQGTLVTVSS	binds
SEQ ID NO 51 (antibody, V domains shown, UniAb: CH1 deleted, no light chain; HEK supernatant) VH: EVQLLESGGGLVQPGGSLRLSCAASGFTFSNYAMNWVRQAPGKGLEWVSGITGSGGSTYYADSVKGRFTISRDNSKNTLYLQMNSLRVEDTAVYYCVKDWNTTMITERGQGTLVTVSS	binds
SEQ ID NO 30 (antibody, V domains shown, UniAb: CH1 deleted, no light chain; HEK supernatant) VH: EVQLLESGGGLVQPGGSLRLSCAASGFTFSSYAMNWVRQAPGKGLEWVSGIIGSGGSTYYADSVKGRFTISRDNSKNTVYLQMNSLRAEDTAVYYCVKDWNTTMITERGQGTLVTVSS	binds
SEQ ID NO 28 (antibody, V domains shown, UniAb: CH1 deleted, no light chain; HEK supernatant) VH: EVQLLESGGGLVQPGGSLRLSCAASGFTFSSYAMNWVRQAPGKGLEWVSGITGSGGSTYYADSVKGRFSISRDNSKNTLDLQMNSLRAEDTAVYYCVKDWNTTMITERGQGTLVTVSS	binds
SEQ ID NO 27 (antibody, V domains shown, UniAb: CH1 deleted, no light chain; HEK supernatant) VH: EVQLLESGGGLVQPGGSLRLSCAASGFTFSSYAMNWVRQAPGKGLEWVSGLTGNGDSTYYADSVKGRFTISRDNSKNTVYLQMNSLRAEDTAVYYCVKDWNTTMITERGQGTLVTVSS	binds
SEQ ID NO 33 (antibody, V domains shown, UniAb: CH1 deleted, no light chain; HEK supernatant) VH: EVQLLESGGGLVQPGGSLRLSCAASGFTFSNYAMTWIRQAPGKGLEWVSGITGDGGSTFYADSVKGRFSISRDNSKNTLDLQMNSLRAEDTAVYYCVKDWNTTMITERGQGTLVTVSS	binds
SEQ ID NO 38 (antibody, V domains shown, UniAb: CH1 deleted, no light chain; HEK supernatant) VH: EVQLLESGGGVVQPGRSLRLSCAASGFTFSSYAMSWVRQAPGKGLEWVSGIIGSGGSTYYADSVKGRFTISRDNSKNTLYLQMNSLRAEDTAVYYCVKDWNTTMITERGQGTLVTVSS	binds
SEQ ID NO 23 (antibody, V domains shown, UniAb: CH1 deleted, no light chain; HEK supernatant) VH: EVQLLESGGGLVQPGGSLRLSCAASGFTFSSYAMSWVRQAPGKGLEWVSGITGDGGSTFYADSVKGRFTISRDNSKNTLYLQMNSLRAEDTAVYYCVKDWNTTMITERGQGTLVTVSS	binds
SEQ ID NO 49 (antibody, V domains shown, UniAb: CH1 deleted, no light chain; HEK supernatant) VH: EVQLLESGGGLVQPGGSLRLSCAASGFTFSSYAMTWIRQAPGKGLEWVSGIVGGGGTSYYADSVRGRFTISRDNSKNTLYLQMNSLRAEDTAVYYCVKDWNTTMITERGQGTLVTVSS	binds
SEQ ID NO 39 (antibody, V domains shown, UniAb: CH1 deleted, no light chain; HEK supernatant) VH: EVQLLESGGGLVQPGGSLRLSCAASGFTFSNYAMSWVRQAPGKGLEWVSGIIGSGGSTYYADSVKGRFSISRDNSKNTLYLQMNSLRAEDTAVYYCVKDWNTTMITERGQGTLVTVSS	binds
SEQ ID NO 31 (antibody, V domains shown, UniAb: CH1 deleted, no light chain; HEK supernatant) VH: EVQLLESGGGLVQPGGSLRLSCAASGFTFSSYAMNWVRQAPGKGLEWVSGITGSGDSTYYAASVKGRFSISRDNSQNTLDLQMNSLRAEDTAVYYCVKDWNTTMITERGQGTLVTVSS	binds
SEQ ID NO 52 (antibody, V domains shown, UniAb: CH1 deleted, no light chain; HEK supernatant) VH: EVQLLESGGGLVQPGGSLRLSCAASGFTFSSYAMNWVRQAPGKGLEWVSGIVGGGGTSYYADSVRGRFTISRDNSKNTLYLQMNSLRAEDTAVYYCVKDWNTTMITERGQGTLVTVSS	binds
SEQ ID NO 21 (antibody, V domains shown, UniAb: CH1 deleted, no light chain; HEK supernatant) VH: EVQLLESGGGLVQPGRSLRLSCAASGFTFTNYAMNWVRQAPGKGLEWVSGISGGGGSTYYADSVKGRFTISRDNSKNTLYLQMNSLRAEDTAVYYCVKDWNTTMITERGQGTLVTVSS	binds
SEQ ID NO 24 (antibody, V domains shown, UniAb: CH1 deleted, no light chain; HEK supernatant) VH: EVQLLESGGGLVQPGGSLRLSCAASGFTFSSYAMSWVRQAPGKGLEWVSGIIGSGGSTYYADSVKGRFSISRDNSKNTLDLQMNSLRAEDTAVYYCVKDWNTTMITERGQGTLVTVSS	binds
SEQ ID NO 36 (antibody, V domains shown, UniAb: CH1 deleted, no light chain; HEK supernatant) VH: EVQLLESGGGLVQPGGSLRLSCAASGFTFSNYAMNWVRQAPGNGLEWVSGLTGSGGSTYYADSVKGRFTISRDNSKNTVYLQMNSLRAEDTAVYYCVKDWNTTMITERGQGTLVTVSS	binds
SEQ ID NO 48 (antibody, V domains shown, UniAb: CH1 deleted, no light chain; HEK supernatant) VH: EVQLLESGGGLVQPGGSLRLSCAASGFTFSNYAMTWIRQAPGKGLEWVSGITGDGGSTFYADSVKGRFTISRDNSKNTLYLQMNSLRAEDTAVYYCVKDWNTTMITERGQGTLVTVSS	binds

Binder	binding result
SEQ ID NO 34 (antibody, V domains shown, UniAb: CH1 deleted, no light chain; HEK supernatant) VH: EVQLLESGGGLVQPGGSLRLSCAASGFTFSRYAMNWIRQAPGKGLEWVSGIVGSGGNTYYADSVKGRFSISRDNSKNTLYLQMNSLRAEDTAVYYCVKDWNTTMITERGQGTLVTVSS	binds
SEQ ID NO 22 (antibody, V domains shown, UniAb: CH1 deleted, no light chain; HEK supernatant) VH: EVQLLESGGGLVQPGGSLRLSCAASGFTFSSYAMTWVRQAPGKGLEWVSGITENGGSTYYADSVKGRFTISRDNSKNTLDLQMNSLRAEDTAVYYCVKDWNTTMITERGQGTLVTVSS	binds
SEQ ID NO 43 (antibody, V domains shown, UniAb: CH1 deleted, no light chain; HEK supernatant) VH: EVQLLESGGGLVQPGGSLTLSCAASGFTFSNYAMNWVRQAPGKGLEWVSGIIGSGATTYYADSVKGRFTISRDNSKNTLNLQMNSLRAEDTAIYYCVKDWNTTMITERGQGTLVTVSS	binds
SEQ ID NO 37 (antibody, V domains shown, UniAb: CH1 deleted, no light chain; HEK supernatant) VH: EVQLLESGGGLVQPGGSLRLSCAASGFTFTNYAMNWVRQAPGKGLEWVSGIIGSGGSTYYADSVKGRFTISRDNSKNTLYLQMNSLRAEDTAVYYCVKDWNTTMITERGQGTLVTVSS	binds
SEQ ID NO 20 (antibody, V domains shown, UniAb: CH1 deleted, no light chain; HEK supernatant) VH: EVQLLESGGGLAQPGGSLRLSCAASGFTFSSYAMNWIRQAPGKGLEWVSGISGSGGSTYYADSVKGRFTISRDNSKNTVYLQMNSLRAEDTAVYYCVKDWNTTMITERGQGTLVTVSS	binds
SEQ ID NO 32 (antibody, V domains shown, UniAb: CH1 deleted, no light chain; HEK supernatant) VH: EVQLLESGGGLVQPGGSLRLSCAASGFTFSSYAMSWVRQAPGKGLEWVSGLTGSGDSTYYADSVKGRFTISRDNDKNTVYLQMNSLRAEDTAVYYCVKDWNTTMITERGQGTLVTVSS	binds
SEQ ID NO 47 (antibody, V domains shown, UniAb: CH1 deleted, no light chain; HEK supernatant) VH: EVQLLESGGGLVQPGESLRLSCAASGFTFSNYAMNWVRQAPGKGLEWVSGIVGGGGTSYYADSVRGRFTISRDNSKNTLYLQMNSLRAEDTAVYYCVKDWNTTMITERGQGTLVTVSS	binds
SEQ ID NO 50 (antibody, V domains shown, UniAb: CH1 deleted, no light chain; HEK supernatant) VH: EVQLLESGGGLVQPGGSLRLSCAASGFTFSSYAMSWVRQAPGKGLEWVSGIIGSGGTTYYADSVKGRFTISRDNSKNTLNLQMNSLRAEDTAIYYCVKDWNTTMITERGQGTLVTVSS	binds
SEQ ID NO 46 (antibody, V domains shown, UniAb: CH1 deleted, no light chain; HEK supernatant) VH: EVQLLESGGGLVQPGGSLRLSCAASGFTFSSYAMSWVRQAPGKGLEWVSGIIGSGGSTFYADSVKGRFTISRDNSKNTLYLQMNSLRAEDTAVYYCVKDWNTTMITERGQGTLVTVSS	binds
SEQ ID NO 41 (antibody, V domains shown, UniAb: CH1 deleted, no light chain; HEK supernatant) VH: EVQLLESGGGVVQPGRSLRLSCAASGFTFSNYAMNWVRQAPGKGLEWVSGIIGSGGSTYYADSVKGRFTISRDNSKNTLYLQMNSLRAEDTAVYYCVKDWNTTMITERGQGTLVTVSS	binds
SEQ ID NO 42 (antibody, V domains shown, UniAb: CH1 deleted, no light chain; HEK supernatant) VH: EVQLLESGGGLVQPGGSLRLSCAASGFTFSNYAMNWVRQAPGKGLEWVSGIIGSGGSTYYADSVKGRFTISRDNSKNTLYLQMNSLRAEDTAVYYCVKDWNTTMITERGQGTLVTVSS	binds
SEQ ID NO 44 (antibody, V domains shown, UniAb: CH1 deleted, no light chain; HEK supernatant) VH: EVQLLESGGGLVQPGGSLRLSCAASGFTFSNYAMSWVRQAPGKGLEWVSGIIGSGGSTYYADSVKGRFTISRDNSKNTLYLQMNSLRAEDTAVYYCVKDWNTTMITERGQGTLVTVSS	binds
SEQ ID NO 35 (antibody, V domains shown, UniAb: CH1 deleted, no light chain; HEK supernatant) VH: EVQLLESGGGLVQPGGSLRLSCAASGFTFSSYAMSWVRQAPGKGLEWVSGITGSGGSTYYADSVKGRFSISRDNSKNTLDLQMNSLRAEDTAVYYCVKDWNTTMITERGQGTLVTVSS	binds
SEQ ID NO 45 (antibody, V domains shown, UniAb: CH1 deleted, no light chain; HEK supernatant) VH: EVQLLESGGGVVQPGRSLRLSCAASGFTFSSYAMNWVRQAPGKGLEWVSGIIGSGGSTYYADSVKGRFTISRDNSKNTLYLQMNSLRAEDTAVYYCVKDWNTTMITERGQGTLVTVSS	binds
SEQ ID NO 40 (antibody, V domains shown, UniAb: CH1 deleted, no light chain; HEK supernatant) VH: EVQLLESGGGLVQPGGSLRLSCAASGFTFSSYAMSWVRQAPGKGLEWVSGIIGSGGSTYYADSVKGRFTISRDNSKNTLYLQMNSLRVEDTAVYYCVKDWNTTMITERGQGTLVTVSS	binds
